From article PMC2174006

Target: Flag–Rab32 (human) (UniProt Q13637)
Assay: co-IP

Sequence of Flag–Rab32 (human) (Q13637 whole entry): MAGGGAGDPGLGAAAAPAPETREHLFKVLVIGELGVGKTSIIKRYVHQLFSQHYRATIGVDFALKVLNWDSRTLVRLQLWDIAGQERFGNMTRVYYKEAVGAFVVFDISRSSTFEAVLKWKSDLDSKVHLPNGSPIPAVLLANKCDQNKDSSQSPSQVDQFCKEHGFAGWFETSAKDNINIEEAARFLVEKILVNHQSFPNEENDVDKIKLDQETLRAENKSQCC
Sequence of endogenous PKA holoenzyme (P13861 whole entry, one chain of several): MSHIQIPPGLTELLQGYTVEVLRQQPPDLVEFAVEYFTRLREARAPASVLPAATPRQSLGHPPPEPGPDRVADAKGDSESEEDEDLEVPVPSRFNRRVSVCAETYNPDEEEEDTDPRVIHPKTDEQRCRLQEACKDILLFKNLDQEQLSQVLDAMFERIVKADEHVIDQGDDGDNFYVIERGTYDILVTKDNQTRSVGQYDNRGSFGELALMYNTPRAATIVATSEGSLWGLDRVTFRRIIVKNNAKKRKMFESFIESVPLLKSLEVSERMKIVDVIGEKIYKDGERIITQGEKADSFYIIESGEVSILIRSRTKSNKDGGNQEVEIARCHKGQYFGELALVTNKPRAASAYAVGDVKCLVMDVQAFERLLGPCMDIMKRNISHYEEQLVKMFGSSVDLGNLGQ

fold enrichment of PKA activity in the immune complexes: 7.1 fold
Substance: endogenous PKA holoenzyme (from UniProt P13861 1-404; P17612 1-351) (complex)
